The labels stand for the following.
B1: 47VHH1A12 (VHH)
VHH: QLQLVESGGGLVQAGGSLRLSCVVSGGTFSALTMGWFRDVPGKEREFVSAISFDTRTTYYSDSVKGRFAISRDNGLNTVYLDMNSLRPEDTAVYVCAADAQIGWVNRRAYDYDYWGQGTQVTVSS
notes: alpaca VHH; Cloned into pET32b+; about 17 kDa on SDS-PAGE; source: E. coli BL21DE3, purified (Ni-NTA, gel-filtration)
B2: 47VHH1H4 (VHH)
VHH: QVQLVESGGGLVQAGGSLRLSCKVSGNNFRRVNMGWYRQAPGKQRDLVAWISNDGGTYYDRSLKGRFTISRDNTKNTMFLQMDSLKPEDTAVYYCNSRPSSIFGSWGQGTQVTVSS
notes: alpaca VHH; Cloned into pET32b+; about 17 kDa on SDS-PAGE; also called native 47VHH1H4; source: E. coli BL21DE3, purified (Ni-NTA, gel-filtration)
B3: 47VHH1H4B (VHH)
VHH: QVQLVESGGGLVQAGGSLRLSCKVSGNNFRRVNMGWYRQAPGKQRDLVAWISNDGGTYYDRSLKGRFTISRDNTKNTMFLQMDSLKPEDTAVYYCNSRPSSIFGSWGQGTQVTVSS
notes: as the VHH of m3 (47VHH1H4); IgA hinge linker; biotin acceptor domain BAD; About 25 kDa on SDS-PAGE; also called biotinylated 47VHH1H4; biotinylated 47VHH1H4 fragment; source: E. coli BL21DE3 carrying BirA, 0.3 mM biotin, purified (Ni-NTA, UNO S1 cation exchange)
B4: 47VHH1D9 (VHH)
VHH: RVQAGGSLRLSCKVSGNNFRRVNMGWYRQAPGKQRDLVAWISNDGGTYYDRSLKGRFTISRDNTKNTMFLQMDSLKPEDTAVYYCNSRPSSIFGSWGQGTQVTVSS
notes: as for B1
B5: 47VHH1C17 (VHH)
VHH: QVQLVESGGGLVQAGGSLRLSCAASGHTFSSYDMGWFRQAPGKEREFVAHINWSGSTYYADSVKGRFTISGGNAKNAVYLQMNSLKPEDTAVYYCGAKYAISRTWDYWGQGTQVTVSS
notes: as for B1
B6: 47VHH2B10 (VHH)
VHH: QVQLVESGGGLVQPGGSLRLSCEASGFNLGYYGICWFRRAAGKEREGVACSATPDDSTYYADSVKGRFTISKDKAKNMIFLQMNDLKPEDTAVYYCVTDRKPKYGKQWLEFSEYDYWGQGTQVIVSS
notes: as for B1

The term Kd denotes a measure of binding affinity in units of concentration.

For this assay, the target named is T1, human CD47 with His tag (Homo sapiens, UniProt Q08722).
T1 construct: CD47, human; The alpaca was immunised with an extracellular fragment of CD47; also called recombinant CD47; source: gift from P.M. Chumakov
T1 sequence (Q08722 19-323): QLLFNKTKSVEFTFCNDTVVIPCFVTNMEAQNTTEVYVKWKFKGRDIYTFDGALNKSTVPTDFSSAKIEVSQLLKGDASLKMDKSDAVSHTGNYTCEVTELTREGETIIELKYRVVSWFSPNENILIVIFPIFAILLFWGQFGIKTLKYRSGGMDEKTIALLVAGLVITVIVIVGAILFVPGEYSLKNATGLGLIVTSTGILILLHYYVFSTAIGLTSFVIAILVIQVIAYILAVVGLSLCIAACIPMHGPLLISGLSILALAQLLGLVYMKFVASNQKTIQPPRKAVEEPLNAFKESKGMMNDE
The assay can be described thus: SPR; recombinant CD47 anchored to a CM5 chip, nanobodies as analyte, Biacore T200. As to conditions: both partners purified. (SPR reads the build-up and loss of mass on a sensor chip optically.)
For the molecule B1, the Kd was roughly 30 µM.
The value for B2 was 0.03 µM; that for B3 was 0.003 µM.
The same measure for B4: 0.4 µM; for B5: 2 µM.
B6: the Kd is roughly 30 µM.

Values taken from publication PMC10801496, “A Novel Anti-CD47 Nanobody Tetramer for Cancer Therapy” (Antibodies, 2024).
